Blank lines part the entries; values can stand above or below the binder they belong to.
Molecular target: T1, SufB (subunit of the His6-SufBC2D complex, wild type) (Escherichia coli, UniProt P77522 1-495)
T1 sequence: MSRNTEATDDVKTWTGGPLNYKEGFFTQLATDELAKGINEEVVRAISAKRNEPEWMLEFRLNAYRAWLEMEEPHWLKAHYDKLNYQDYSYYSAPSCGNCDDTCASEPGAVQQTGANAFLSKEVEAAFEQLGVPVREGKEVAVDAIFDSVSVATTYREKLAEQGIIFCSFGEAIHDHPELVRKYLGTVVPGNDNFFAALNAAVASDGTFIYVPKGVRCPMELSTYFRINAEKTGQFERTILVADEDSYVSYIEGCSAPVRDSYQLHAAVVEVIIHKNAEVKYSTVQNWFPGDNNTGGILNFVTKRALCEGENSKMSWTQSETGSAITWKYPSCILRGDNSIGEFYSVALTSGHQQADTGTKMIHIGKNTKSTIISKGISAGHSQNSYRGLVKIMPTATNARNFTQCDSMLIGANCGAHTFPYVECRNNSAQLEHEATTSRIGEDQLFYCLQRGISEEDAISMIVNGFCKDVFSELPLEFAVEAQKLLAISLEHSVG
Assay: SEC-MALS

stoichiometry N: 2
B1: SufC (subunit of the SufBC2D complex) (natural protein, Escherichia coli)
chain: MLSIKDLHVSVEDKAILRGLSLDVHPGEVHAIMGPNGSGKSTLSATLAGREDYEVTGGTVEFKGKDLLALSPEDRAGEGIFMAFQYPVEIPGVSNQFFLQTALNAVRSYRGQETLDRFDFQDLMEEKIALLKMPEDLLTRSVNVGFSGGEKKRNDILQMAVLEPELCILDESDSGLDIDALKVVADGVNSLRDGKRSFIIVTHYQRILDYIKPDYVHVLYQGRIVKSGDFTLVKQLEEQGYGWLTEQQ

stoichiometry N: 1
B2: SufD (subunit of the SufBC2D complex, wild type) (natural protein, Escherichia coli)
chain: MAGLPNSSNALQQWHHLFEAEGTKRSPQAQQHLQQLLRTGLPTRKHENWKYTPLEGLINSQFVSIAGEISPQQRDALALTLDSVRLVFVDGRYVPALSDATEGSGYEVSINDDRQGLPDAIQAEVFLHLTESLAQSVTHIAVKRGQRPAKPLLLMHITQGVAGEEVNTAHYRHHLDLAEGAEATVIEHFVSLNDARHFTGARFTINVAANAHLQHIKLAFENPLSHHFAHNDLLLAEDATAFSHSFLLGGAVLRHNTSTQLNGENSTLRINSLAMPVKNEVCDTRTWLEHNKGFCNSRQLHKTIVSDKGRAVFNGLINVAQHAIKTDGQMTNNNLLMGKLAEVDTKPQLEIYADDVKCSHGATVGRIDDEQIFYLRSRGINQQDAQQMIIYAFAAELTEALRDEGLKQQVLARIGQRLPGGAR
